Reference: US20200199241A1 (Chugai, published 2020)
Where a chain is given by its changes, count along the chain named. Numbers in names are those of the source.

T1: FcγRIIb (human, UniProt P31994 43-217, limits assumed)
T1 construct: also called FcgRIIb; FcγIIB
T1 sequence: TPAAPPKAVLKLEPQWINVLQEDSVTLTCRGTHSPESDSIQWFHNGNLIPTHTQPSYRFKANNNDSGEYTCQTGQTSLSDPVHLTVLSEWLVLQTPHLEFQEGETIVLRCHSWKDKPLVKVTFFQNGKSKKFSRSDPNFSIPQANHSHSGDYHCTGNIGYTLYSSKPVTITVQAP

T2: human FcγRIIb (human, UniProt P31994 43-217, limits assumed)
T2 construct: also called FcγIIB
T2 sequence: T1 sequence

T3: FcγRIIa type H (human, UniProt P12318 36-217)
T3 construct: also called FcγRIIaH; FcγRIIH
T3 sequence: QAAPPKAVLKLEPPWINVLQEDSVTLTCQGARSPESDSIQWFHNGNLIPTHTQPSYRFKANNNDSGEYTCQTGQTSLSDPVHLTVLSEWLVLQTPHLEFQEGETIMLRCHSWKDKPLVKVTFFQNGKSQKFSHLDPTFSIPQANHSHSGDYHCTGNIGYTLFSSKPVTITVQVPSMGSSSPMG

T4: FcγRIIa type R (human, UniProt P12318 36-217)
T4 construct: also called FcγRIIaR; FcgRIIaR
T4 chain: T3 sequence with H133R

T5: human FcγRIIa type R (human, UniProt P12318 36-217)
T5 construct: also called FcγRIIaR; FcγRIIa(R)
T5 chain: T3 sequence with H133R

B1: IL6R-B3/IL6R-L (antibody, human IgG1)
heavy: not shown
light: DIQMTQSPSSLSASVGDRVTITCRASQDISSYLNWYQQKPGKAPKLLIYYTSRLHSGVPSRFSGSGSGTDFTFTISSLQPEDIATYYCQQGNTLPYTFGQGTKVEIK
notes: IgG1; IL6R-G1d with K439E (EU); also called parent polypeptide; copies: 2 + 2
B2: IL6R-BP118/IL6R-L (antibody, human IgG1)
heavy: QVQLQESGPGLVKPSETLSLTCAVSGHSISHDHAWSWVRQPPGEGLEWIGFISYSGITNYNPSLQGRVTISRDNSKNTLYLQMNSLRAEDTAVYYCARSLARTTAMDYWGEGTLVTVSSASTKGPSVFPLAPSSKSTSGGTAALGCLVKDYFPEPVTVSWNSGALTSGVHTFPAVLQSSGLYSLSSVVTVPSSSLGTQTYICNVNHKPSNTKVDKKVEPKSCDKTHTCPPCPAPELLGGDSVFLFPPKPKDTLMISRTPEVTCVVVDVSHEDPEVKFNWYVDGVEVHNAKTKPREEQYNSTYRVVSVLTVLHQDWLNGKEYKCKVSNSALPAPIEKTISKAKGQPREPQVYTLPPSRDELTKNQVSLTCLVKGFYPSDIAVEWESNGQPENNYKTTPPVLDSDGSFFLYSKLTVDKSRWQQGNVFSCSVMHEALHNHYTQESLSLSP
light: B1 light
notes: IgG1; Fc variant of IL6R-B3; copies: 2 + 2
B3: IL6R-2B171/IL6R-L (antibody, human IgG1)
heavy: B2 heavy with V325L, S328K
light: B1 light
notes: as for B2
B4: IL6R-BF648/IL6R-L (antibody, human IgG1)
heavy: not shown
light: B1 light
notes: IgG1; Fc variant of IL6R-B3; control (= 100) of the relative values; copies: 2 + 2
B5: IL6R-G1d/IL6R-L (antibody, human IgG1)
heavy: not shown
light: B1 light
notes: IgG1 (G1d constant region) antibody to human IL-6 receptor; also called IgG1 (IL6R-G1d); copies: 2 + 2
B6: IL6R-BP103/IL6R-L (antibody, human IgG1)
heavy: B2 heavy with S269V, S328K
light: B1 light
notes: as for B2
B7: IL6R-2B172/IL6R-L (antibody, human IgG1)
heavy: B2 heavy with V325M, S328K
light: B1 light
notes: as for B2
B8: IL6R-BP116/IL6R-L (antibody, human IgG1)
heavy: B2 heavy with S328T
light: B1 light
notes: as for B2
B9: IL6R-BP100/IL6R-L (antibody, human IgG1)
heavy: B2 heavy with S269A, S328K
light: B1 light
notes: as for B2
B10: IL6R-BP102/IL6R-L (antibody, human IgG1)
heavy: B2 heavy with S269Q, S328K
light: B1 light
notes: as for B2
B11: IL6R-BP119/IL6R-L (antibody, human IgG1)
heavy: B2 heavy with S328M
light: B1 light
notes: as for B2
B12: IL6R-PD095/IL6R-L (antibody, human IgG1)
heavy: B2 heavy with G239Y, M254Y, S328K, N436Y, E441K
light: B1 light
notes: Alteration introduced into IL6R-F11; also called P238D/G237Y; G237Y/P238D
B13: IL6R-PD097/IL6R-L (antibody, human IgG1)
heavy: B2 heavy with S241D, M254Y, S328K, N436Y, E441K
light: B1 light
notes: Alteration introduced into IL6R-F11; also called P238D/S239D

biological target: T1, FcγRIIb; test: SPR (Biacore); KD for FcγRIIaH divided by KD for FcγRIIb of the same antibody
Description: Furthermore, KD(IIaR)/KD(IIb) and KD(IIaH)/KD(IIb) in the table respectively represent the value obtained by dividing the KD value of each variant for FcγRIIaR by the KD value of each variant for FcγRIIb, and the value obtained by dividing the KD value of each variant for FcγRIIaH by the KD value of each variant for FcγRIIb.

KD(IIaH)/KD(IIb) | Binder
0.2 | B1
40 | B2
31.8 | B3
33.9 | B4
0.3 | B5
71.5 | B6
27.3 | B7
48.2 | B8
42.6 | B9
67.6 | B10
39.5 | B11

biological target: T2, human FcγRIIb; test: SPR (Biacore); KD for FcγRIIaR divided by KD for FcγRIIb of the same antibody

KD(IIaR)/KD(IIb) | Binder
3.4 | B12
2.6 | B13

biological target: T1, FcγRIIb; test: as above

KD(IIaR)/KD(IIb) | Binder
0.3 | B1
13.2 | B2
15 | B3
13 | B4
0.4 | B5
9 | B6
8 | B7
13.3 | B8
7.3 | B9
9.4 | B10
8.7 | B11

biological target: T6, FcγRIa (human, UniProt P12314 16-292, limits assumed); test: SPR (Biacore), FcγR over captured antibody
T6 construct: also called FcgRIa; CD64
T6 sequence (P12314 16-292 limits assumed): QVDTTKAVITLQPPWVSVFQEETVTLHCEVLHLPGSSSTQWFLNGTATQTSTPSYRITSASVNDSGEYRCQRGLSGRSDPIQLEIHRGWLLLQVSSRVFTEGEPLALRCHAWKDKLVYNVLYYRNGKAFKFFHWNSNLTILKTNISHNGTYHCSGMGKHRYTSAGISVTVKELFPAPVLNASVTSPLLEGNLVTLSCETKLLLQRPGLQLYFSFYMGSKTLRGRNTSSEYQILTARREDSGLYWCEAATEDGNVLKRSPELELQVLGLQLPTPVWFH

Kd [µM] | Binder
0.00042 | B1
0.012 | B2
0.0091 | B3
0.011 | B4
0.00032 | B5
0.035 | B6
0.003 | B7
0.0026 | B8
0.0011 | B9
0.0082 | B10
0.007 | B11

biological target: T3, FcγRIIa type H; test: SPR (Biacore), FcγR over captured antibody

Kd [µM] | Binder
0.77 | B1
46 | B2
34 | B3
40 | B4
0.67 | B5
88 | B6
21 | B7
54 | B8
46 | B9
61 | B10
45 | B11

Biological target: T4, FcγRIIa type R
Test: SPR (Biacore), FcγR over captured antibody

Kd [µM] | Binder
1.1 | B1
15 | B2
16 | B3
15 | B4
1 | B5
11 | B6
6.1 | B7
15 | B8
7.8 | B9
8.4 | B10
9.9 | B11

biological target: T7, FcγRIIIa type V (human, UniProt P08637 17-208, limits assumed); test: SPR (Biacore), FcγR over captured antibody
T7 construct: also called FcγRIIIaV; FcgRIIIaV
T7 sequence (P08637 other isoform, or with tags, fused parts or gaps limits assumed): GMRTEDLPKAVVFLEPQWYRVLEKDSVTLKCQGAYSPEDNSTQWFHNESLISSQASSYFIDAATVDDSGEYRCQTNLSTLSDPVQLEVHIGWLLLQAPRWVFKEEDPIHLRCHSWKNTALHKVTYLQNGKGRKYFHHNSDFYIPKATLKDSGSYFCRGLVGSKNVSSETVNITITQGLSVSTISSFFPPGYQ

Kd [µM] | Binder
0.33 | B1
56 | B2
57 | B3
71 | B4
0.35 | B5
110 | B6
48 | B7
72 | B8
59 | B9
82 | B10
56 | B11

biological target: T1, FcγRIIb; test: SPR (Biacore), FcγR over captured antibody

Kd [µM] | Binder
3.1 | B1
1.2 | B2
1.1 | B3
1.2 | B4
2.6 | B5
1.2 | B6
0.77 | B7
1.1 | B8
1.1 | B9
0.9 | B10
1.1 | B11

biological target: T2, human FcγRIIb; test: SPR (Biacore); ratio against parent IL6R-F11/IL6R-L

KD(IIb) of parent polypeptide/KD(IIb) of altered polypeptide | Binder
2.9 | B12
5 | B13

biological target: T2, human FcγRIIb; test: SPR (Biacore), antibody captured, FcγR as analyte

Kd [µM] | Binder
2.3 | B12
1.4 | B13

biological target: T8, human FcγRIa (human, UniProt P12314 16-292, limits assumed); test: SPR (Biacore), antibody captured, FcγR as analyte
T8 construct: also called CD64
T8 sequence (P12314 16-292 limits assumed): as the sequence (P12314 16-292 limits assumed) above

Kd [µM] | Binder
0.093 | B12
0.0049 | B13

Biological target: T5, human FcγRIIa type R
Test: SPR (Biacore), antibody captured, FcγR as analyte

Kd [µM] | Binder
7.9 | B12
3.5 | B13

biological target: T2, human FcγRIIb; test: SPR (Biacore); KD for FcγRIIaH divided by KD for FcγRIIb of the same antibody

KD(IIaH)/KD(IIb) | Binder
6.4 | B12
14 | B13

biological target: T2, human FcγRIIb; test: SPR (Biacore), binding amount relative to IL6R-F652/IL6R-L = 100

relative binding activity | Binder
124 | B12
139 | B13

Biological target: T5, human FcγRIIa type R
Test: as above

relative binding activity | Binder
543 | B12
844 | B13

biological target: T6, FcγRIa; test: SPR (Biacore), bound amount, IL6R-BF648/IL6R-L = 100
Protocol: (§1) According to the following method, relative binding activities were calculated for the results of analyzing interactions with the respective FcγRs.

relative binding activity | Binder
145 % of control | B1
100 % of control | B4
140 % of control | B5

biological target: T3, FcγRIIa type H; test: as above
Protocol: as §1

relative binding activity | Binder
1600 % of control | B1
100 % of control | B4
1670 % of control | B5

biological target: T7, FcγRIIIa type V; test: as above
Protocol: as §1

relative binding activity | Binder
3260 % of control | B1
100 % of control | B4
3350 % of control | B5

biological target: T1, FcγRIIb; test: as above
Protocol: as §1

relative binding activity | Binder
58 % of control | B1
100 % of control | B4
62 % of control | B5

biological target: T1, FcγRIIb; test: SPR (Biacore), KD of IL6R-B3/IL6R-L divided by KD of the variant
Description: Furthermore, KD(IIaR)/KD(IIb) and KD(IIaH)/KD(IIb) in the table respectively represent the value obtained by dividing the KD value of each variant for FcγRIIaR by the KD value of each variant for FcγRIIb, and the value obtained by dividing the KD value of each variant for FcγRIIaH by the KD value of each variant for FcγRIIb. KD(IIb) of the parent polypeptide/KD(IIb) of the altered polypeptide refers to the value obtained by dividing the KD value of the parent polypeptide for FcγRIIb by the KD value of each variant for FcγRIIb.

KD(IIb) of the parent polypeptide/KD(IIb) of altered polypeptide [fold] | Binder
1 | B1
2.7 | B2
2.9 | B3
2.6 | B4
1.2 | B5
2.5 | B6
4 | B7
2.8 | B8
2.9 | B9
3.4 | B10
2.7 | B11
